Assay results as given in patent publication US20240115706A1 (LG CHEM, published 2024).
Residue numbers refer to the chain shown, from its start.

T1: monkey GUCY2C-rCD4 fusion protein (Macaca fascicularis (crab-eating …, limits assumed))
T1 construct: Prepared by the same method as the human antigen; also called Cy-GUCY2C-rCD4; monkey GUCY2C recombinant antigen
T1 chain: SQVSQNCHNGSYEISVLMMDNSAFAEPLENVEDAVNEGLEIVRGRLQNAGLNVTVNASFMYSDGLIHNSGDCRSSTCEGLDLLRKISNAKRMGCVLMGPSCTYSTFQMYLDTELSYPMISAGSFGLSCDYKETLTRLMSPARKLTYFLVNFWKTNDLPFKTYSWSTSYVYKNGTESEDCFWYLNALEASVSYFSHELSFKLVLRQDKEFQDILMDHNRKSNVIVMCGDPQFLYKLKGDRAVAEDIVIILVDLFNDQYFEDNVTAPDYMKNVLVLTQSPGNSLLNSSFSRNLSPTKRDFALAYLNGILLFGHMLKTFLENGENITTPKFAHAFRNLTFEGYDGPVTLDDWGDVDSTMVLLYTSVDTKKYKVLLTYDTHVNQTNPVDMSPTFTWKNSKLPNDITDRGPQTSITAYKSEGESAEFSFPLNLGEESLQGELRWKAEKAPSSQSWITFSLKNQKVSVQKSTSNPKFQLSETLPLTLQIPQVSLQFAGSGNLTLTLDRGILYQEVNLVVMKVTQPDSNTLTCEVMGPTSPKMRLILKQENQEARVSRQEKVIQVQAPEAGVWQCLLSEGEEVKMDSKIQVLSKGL

B1: scFv A10 (scFv)
scFv: EVQLVQSGAEVKKPGSSVKVSCKASGGTFSSYAISWVRQAPGQGLEWMGGIIPIFGTANYAQKFQGRVTITADESTSTAYMELSSLRSEDTAVYYCARTRYIWGSYRAYGMDVWGQGTMVTVSSGGGGSGGGGSGGGASDIQMTQSPSSMSASVGDRVTITCRASQSISSHLNWYQQLPGNAPTLLIYYASNLQSGVPSRFSGSGSGTDFTLTISSLQPDDFATYYCQQSISLPYTFGQGTKVEIK
notes: also called 2432_01_D08; D08
B2: scFv A03 (scFv)
scFv: QVQLVQSGAEVKKPGSSVKVSCKASGGTFSSYTISWVRQAPGQELEWMGRIIPILGIANYAQKFQGRVTITADKSTSTAYMELSSLRSEDTAVYYCARDYSSSWNSMDVWGQGTLVTVSSGGGGSGGGGSGGGASQSGLTQPPSASGSPGQSVTISCTGTSSDIGYYHYVSWYQQHPGKAPKLMIYEDSKRPSGISNRFSGSKSGTTASLTVSGLQAEDEAHYYCSSFTSRSTWVFGGGTQLTVL
notes: also called 2427_01_A12
B3: scFv A12 (scFv)
scFv: EVQLVQPGAEVKKPGSSVKVSCKASGGTLSSYAISWVRQAPGQGLEWMGRIIPILGITNYAQKFQGRVTITADKSTSTAYMELSSLRSEDTAVYFCARDQRPASMDVWGQGTLVTVSSGGGGSGGGGSGGGASQSELTQPASVSGSPGQSITISCTGTSSDVGGYIYVSWYQQHPGKVPKLMIHDVSHRPSGVSNRFSGSRSGNTASLTISGLQAEDEADYFCSSYTSSNNYVFGTGTKVTVL
notes: also called 2433_01_G08
B4: scFv A04 (scFv)
scFv: B3 scFv with V233Y
notes: also called 2427_01_B02
B5: scFv A02 (scFv)
scFv: B3 scFv with T227A, S228G
notes: also called 2427_01_A08
B6: scFv C02 (scFv)
scFv: QVQLVQSGAEVKKPGSSVKVSCKASGGTFSSYTISWVRQAPGQGLEWMGRIIPILGIANYAQKFQGRVTITADKSTSTAYMELSSLRSEDTAVYYCARDRSYNWLDPWGRGTLVTVSSGGGGSGGGGSGGGASQSALTQPVSVSGSPGQSITISCTGTISDVGDYNYVSWYQQHPGKAPKLMIYDVNNRPSGVSNRFSGSKSGNTASLTISGLQAEDEADYYCSSYTSSSTLVFGGGTKLTVL
notes: also called 2437_02_H08
B7: scFv A05 (scFv)
scFv: QVQLVQSGAEVKKPGSSVKVSCKASGGTFSSYTITWVRQAPGQGLEWMGRIIPVLGIANYAQKFQGRVTITADKSTSTAYMELSSLRSEDTAVYYCARDYSSSWNSMDVWGQGTLVTVSSGGGGSGGGGSGGGASQSGLTQPRSVSGSPGQSVTISCTGTSSDVGGYNYVSWYQQHPGKAPKLMIYDVSKRPSGVPDRFSGSKSGNTASLTVSGLHAEDEADYYCSSYAGSNNFVFGTGTKVTVL
notes: also called 2427_01_B07
B8: scFv A06 (scFv)
scFv: B7 scFv with S30G, T35S, V54I, G166A, D187E, G201A, H216Q, F234W, T238G, V242L
notes: also called 2427_01_C01
B9: scFv B07 (scFv)
scFv: EVQLVQSGAEVKRPGSSVKVSCKASGYTFTSYYMHWVRQAPGQGLEWMGIINPSGGSTSYAQKFQGRVTMTRDTSTSTVYMELSSLRSEDTAVYYCAAGTYSSGWTIDYWGQGTTVTVSSGGGGSGGGGSGGGASDIVMTQSPLSLPVTLGQPASISCRSSQSLVYTDGNTYLNWFQQRPGQSPRRLIYKVSNRDSGVPDRFSGSGSGTDFTLKISRVEAEDVGIYYCMHSKQWPPTFGGGTKVEIK
notes: also called 2436_02_F10
B10: scFv C01 (scFv)
scFv: QMQLVQSGAEVKKPGSSVKVSCKASGGTFSSYAISWVRQAPGQGLEWMGGIIPIFGTANYAQKFQGRVTITADESTSTAYMELSSLRSEDTAVYYCVRGYSSIYYYYGMDVWGQGTMVTVSSGGGGSGGGGSGGGASQSGLTQPRSVSGSPGQSVTISCTGTSSDVGGYNYVSWYQQHPGKAPKLMIYDVSKRPSGVSDRFSGSKSGNTASLTISGLQAEDEADYYCGSYTSDGTLVFGGGTKLTVL
notes: also called 2437_02_H05
B11: scFv B10 (scFv)
scFv: EVQLVQSGAEVKKPGSSVKVSCKASGGTFSSYAISWVRQAPGQGLEWMGGIIPIFGTANYAQKFQGRVTITADKSTSTAYMELSSLRSEDTAVYYCARGHYYYMDVWGQGTTVTVSSGGGGSGGGGSGGGASDIVMTQSPATLSVSPGEGATLSCRASQSVSSNLAWYQQKPGRAPRLLIYGASTRATGIPARFSGSGSGTEFTLTISSLQSEDFAVYYCQQYNNWPTFGGGTKLEIK
notes: also called 2436_02_G01

Assays:
[1] = biological target: T2, GUCY2C on the cell surface (T84 colon carcinoma cells; HT29-GUCY2C cells) (human, UniProt P25092 24-1073); assay: flow cytometry, scFv(-Fc) at 10 ug/mL on GUCY2C-positive T84 cells, detected with IgG-Fc-PE Ab (FL2-H)
T2 construct: whole, on cells; also called GUCY2C expressing T84 cells; HT29 GCC cells
Protocol: Using cells naturally expressing GUCY2C, whether 18 kinds of scFvs produced in Example 1 could actually detect GUCY2C expression on the cell surface was confirmed. For this, a GUCY2C positive cancer cell, T84 colon carcinoma cell (ATCC® CCL248™) was used.
After separating the two cell lines using trypsin-EDTA, they were placed in FACS buffer (1×PBS+2% BSA). 10 ug/mL of each of the 18 kinds of scFvs and positive control group, 5F9 scFv was cultured with T84 and T-47D cells on ice for 1 hour. The scFv combined to cells was detected using 5 ug/mL IgG-Fc-PE Ab (BioLegend; 409304). The cells were cultured with ToPro®3 (live/dead stain) and then red with a flow cytometer.

[2] = biological target: T3, human GUCY2C-rCD4 fusion protein (Homo sapiens (human); Rattus norvegicus, biotinylated (site not given)); assay: SPR (Sierra SPR-32), scFv on protein G, antigen 800-12.5 nM, 25 C
T3 construct: GUCY2C conjugated/fused with CD4; also called Hu-GUCY2C-rCD4; human GUCY2C recombinant antigen
Protocol: Furthermore, the affinity to the GUCY2C antigen of the 18 kinds of scFvs produced in Example 1 was measured by SPR (Surface plasmon resonance) analysis.
SPR assay was performed with association time 2 min and dissociation time 10 min under the condition of 25 degrees of Celsius using MASS2 (Sierra SPR-32; Bruker). The data were analyzed with Software R3.

[3] = biological target: T3, human GUCY2C-rCD4 fusion protein; assay: ranking ELISA (DELFIA), 50 nM scFv on anti-FLAG, biotinylated antigen, streptavidin-Eu
Protocol: (§1) More specifically, after coating an anti-FLAG antibody in a MaxiSorb plate and binding by adding scFvs obtained previously, the remaining scFvs were removed by a washing process. Here, a biotinylated human-GUCY2C-rCD4 protein was incubated and combined, and then the affinity to the antigen was measured by reading signals by DELFIA enhancement with color development through streptavidin-Europlum.

[4] = biological target: T3, human GUCY2C-rCD4 fusion protein; assay: ranking ELISA (DELFIA), 5 nM scFv on anti-FLAG, biotinylated antigen, streptavidin-Eu
Protocol: as §1

[5] = biological target: T3, human GUCY2C-rCD4 fusion protein; assay: ELISA (DELFIA), antigen on streptavidin plate, scFv culture solution, Eu-anti-tag Ab
Protocol: (§2) More specifically, GUCY2C-rCD4 fusion protein, in which the prepared human GUCY2C (SEQ ID NO: 112), monkey GUCY2C (SEQ ID NO: 114), and mouse GUCY2C (SEQ ID NO: 113) were fused, respectively, was bound to a place coated with streptavidin in a Nunc Maxisorp™96 well plate. After removing all the synthetic proteins not combined with washing buffer, the anti-GUCY2C scFV obtained in the culture solution was incubated in each well. After that, the affinity was measured by reading signals DELFIA enhanced using Eu-anti-tag Ab.

[6] = biological target: T1, monkey GUCY2C-rCD4 fusion protein; assay: as above
Protocol: as §2

Binder	binding result [1]	Kd [2] [nM]	Affinity Ranking ELISA (50 nM) signal [3]	Affinity Ranking ELISA (5 nM) signal [4]	Binding ELISA signal [5]	Binding ELISA signal [6]
B1	binds	48	243000	81200	55400	37200
B2	–	219	199000	36000	59200	–
B3	–	297	151000	28100	38200	–
B4	–	311	173000	30400	51000	–
B5	–	743	168000	33400	48300	–
B6	–	1480	86300	11000	49500	32300
B7	–	4390	131000	18300	43000	–
B8	–	716	185000	35100	63100	–
B9	–	293	139000	25900	68600	–
B10	–	1150	29500	3090	37500	21600
B11	–	2860	105000	12500	34400	–
